Tested on: MS2 coat protein
Test: apparent KD of MS2 coat protein; designed switch direction (-1 OFF switch, 1 ON switch): -1; higher = weaker reporter binding
Procedure, shortened: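 Stalled E. coli RNA polymerase transcribed designed RNA switches on Illumina chips, which were then titrated with SNAP-549-labelled MS2 coat protein, doubling from 0.7 or 1.5 nM to 3 µM. Steps lasted from 0.8–1.5 h at the lowest concentration to 10–20 min at the highest. The apparent KD is each design's median over clusters of curve-fitted normalised fluorescence.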

[1] = input ligand: microRNA oligo, concentration not stated
[2] = Eterna round: R95, input ligand: FMN 200 uM
[3] = Eterna round: R95, input ligand: microRNA oligo, concentration not stated
[4] = Eterna round: R95, input ligand: none

Row | Sequence | apparent KD of MS2 coat protein (input ligand: FMN 200 uM) | apparent KD of MS2 coat protein [1] | apparent KD of MS2 coat protein (input ligand: none) | apparent KD of MS2 coat protein [2] | apparent KD of MS2 coat protein [3] | apparent KD of MS2 coat protein [4]
1 | UUGUACCGGUGAGGAUAUUUUUAAUAGAGCUUUAUGAUAUACAUGAGGAUCACCCAUGUUACUUUAAAGAAGGCAUCGGAUUAU [JL JR Sub091 mod 3] (Eterna round: R96, puzzle: Exclusion NG 2) | 14.9 nM | 12 nM | 20.6 nM | – | – | –
2 | AACACACAUGAGGAUCACCCAUGUGAGGAUAUCGUCGAGGAUGUAAUGCCAUCCGUGACGAGAAGGCACUUGGG [Exclusion 1 (Mod 3 solution 40 by Eternabot)] (Eterna round: R97, puzzle: Exclusion 1) | 58.8 nM | – | 211 nM | – | – | –
3 | AAACUGUGAGGAUAUGCACGGGCCCUCUUAAUAAAACCAAAACAUGAGGAUCACCCAUGUAGAAGGCACACAUA [EX2 A.24] (Eterna round: R97, puzzle: Exclusion 2) | 53.5 nM | – | 543 nM | – | – | –
4 | AAUAACAAGUAGGAUCCUAACAUGAGGAUCACCCAUGUGCUCGUCUUAUAAAGUACUAUCACGAAAGUGAUAGUACA [Sensor 3, v1 - 53] (puzzle: Sensor v3, turn-off variant 1) | – | – | – | 44.4 nM | 64.2 nM | 83.5 nM
5 | CAUUACUGCAGGCUUUGGGACAUGAGGAUCACCCAUGUUCGUCUUAUUGAUCUAGGUACGCUGACGUACCUAGAUCU [JL-sv1-2.26 Brourd mod] (puzzle: Sensor v3, turn-off variant 1) | – | – | – | 17.6 nM | 20.8 nM | 15.1 nM
6 | UGACGAGUAGGAUAUUGGACUUGCGACAUGAGGAUCACCCAUGUGACGUCAACGUGGCACCAAGAAGGGCUACGUC [Gelareusdi] (puzzle: Exclusion 5) | – | – | – | – | 47.7 nM | –
7 | UAUUAGCAAGUAAGAUCCCACAUGAGGAUCACCCAUGUGCUCGUCUUAUAAGGUACUGUGACGAAAGUCACGGUACC [Sensor 3, v1 - 88] (Eterna round: R96, puzzle: Sensor v3, turn-off variant 1) | 16.7 nM | 313 nM | 18.1 nM | – | – | –
8 | GCUGGUCGAGGAUAUACAAUCGUGCUUCGGCACGUAAGAUCACAUGAGGAUCACCCAUGUAGAAGGUGACCAGC [E2/1-B3] (Eterna round: R97, puzzle: Exclusion 2) | 118 nM | – | 25.1 nM | – | – | –
9 | AACCAGAUGAAACACAGGCACAUGAGGAUCACCCAUGUCUUAGAGCAUUCGGGUAAUCGGCUCGUUUUAAUUAGAAC [Eternabot (L1) Solution 22] (Eterna round: R97, puzzle: Sensor, turn-off variant 1) | 279 nM | – | 344 nM | – | – | –
10 | AAAAAGGCAGGAUAUGCAUACACACAAAAAAAAAAACUGGGACAUGAGGAUCACCCAUGUAGAAGGGCCAAAAA [Dora Explored 8 - Jieux - Exclusion 2] (Eterna round: R96, puzzle: Exclusion 2) | 60.1 nM | 53.7 nM | 54.1 nM | – | – | –
11 | AGGUAACAUGAGGAUCACCCAUGUCAGGAUAUCAGGAAGAUUAGAAUAGAGUAGAGGAUGAGAAGGGACUAUAU [Excluse me! 18- Jieux - Exclusion 1] (Eterna round: R96, puzzle: Exclusion 1) | – | 24.7 nM | – | – | – | –
12 | CGGAUGUUAGGAUAUUAGUAGUAGUCAGAAUAGACUAUUACUGAGAAGGAACAUGAGGAUCACCCAUGUUUCCG [Eli x4 4.19] (Eterna round: R97, puzzle: Exclusion 4) | 16.5 nM | – | 17.4 nM | – | – | –
13 | GGUGCGUAUGUGAGGAUAUGCUGGUCCUUGGAUCGGCAGAAGGCACAUGAGGAUCACCCAUGUGGUGUCGUACA [salish99_Bmod_ex4_087] (puzzle: Brourd's mod of Exclusion 4) | – | – | – | – | 232 nM | –
14 | CCGGUUGGCGCAGGAUAUACAUGAGGAUCACCCAUGUUCAUGAGGAUCACCCAUGAGGUAAUGAUGUAGAAGGGUGGCCCGGCC [A second MS2 with the first and last base exchanged] (Eterna round: R96, puzzle: Exclusion NG 2) | 30.5 nM | 18.5 nM | 33.6 nM | – | – | –
15 | ACUAUACGAGGAUAUACUGACGGGCCUCAGGCAUCCAUCAGACAUGAGGAUCACCCAUGUAGAAGGCGUAUACU [JR_Exc002_Sub408] (Eterna round: R96, puzzle: Exclusion 2) | 459 nM | 44.4 nM | 51.4 nM | – | – | –
16 | GGUUAUUGCAAGGAUAUGCUUUUUUUUUAUAUUGCAGAAGGUGCAACAUGAGGAUCACCCAUGUUGGAGGGAUU [JR_E6_Sub021] (puzzle: Exclusion 6) | – | – | – | – | 28.9 nM | –
17 | UAGCGACCAUACAUGAGGAUCACCCAUGUGAAUGCCCACCGCGAGGAUAUCGAGUCCACUCGGGCCGAGAAGGCGCGACCUCAA [Eternabot solution 43] (Eterna round: R96, puzzle: Exclusion NG 3) | 34.8 nM | 16.1 nM | 35.5 nM | – | – | –

Row | Sequence | apparent KD of MS2 coat protein (input ligand: FMN 200 uM) | apparent KD of MS2 coat protein [1] | apparent KD of MS2 coat protein (input ligand: none) | apparent KD of MS2 coat protein [2] | apparent KD of MS2 coat protein [3] | apparent KD of MS2 coat protein [4]
18 | AGUAACUAUCACGAAAGUGAUAGUUACAAAAGCAGUGAAACAUGAGGAUCACCCAUGUCCUCAUUUGCUCGUCUUAU [Sensor 3 - 24] (puzzle: Sensor v3, turn-off variant 2) | – | – | – | 53.4 nM | 576 nM | 66.5 nM
19 | UUUAAUUUUUUUUUUUUACAAGCUUUUUGCUCGUCUUAUACAUGAGGAUCACCCAUGUAAGUGGGAGGUAAAUUAUC [JMF 76] (puzzle: Sensor v3, turn-off variant 2) | – | – | – | 54.3 nM | 201 nM | 102 nM
20 | UCGGCGCGAGGAUAUACGUUUGCUUUUUUUUGUUUUUGUGUACAUGAGGAUCACCCAUGUAGAAGGCGCGCCGC [Apr-15 SS2-21] (puzzle: Exclusion 2) | – | – | – | – | 22 nM | –
21 | CACGAGCUAGGAUAUACAUGAGGAUCACCCAUGUAAGUCAUGCGGUCACAUCUGACAGGUAGAAGGAGCGCGUC [Teaertete] (puzzle: Exclusion 3) | – | – | – | – | 37.5 nM | –
22 | AAAUUGGUAGAGGAUAUCGUACAGGAAACGGUGCGAGAAGGUUGCACAUGAGGAUCACCCAUGUUAAGUUGCGA [EX6 #45] (Eterna round: R97, puzzle: Exclusion 6) | 24.1 nM | – | 26.8 nM | – | – | –
23 | UAUUGCAAGCGAAGAUCCCACAUGAGGAUCACCCAUGUGCUCGUCUUAUAAGGUACUGUGACGAUAGUCACGGUACC [Mat - Sensor, turn-off var - Eli Mod - D76] (Eterna round: R97, puzzle: Sensor, turn-off variant 1) | 34 nM | – | 30.6 nM | – | – | –
24 | UUUAAUUUUUUUUUUUUACAAGCUUUUUGCUCGUCUUAUACAUGAGGAUCACCCAUGUAGGUGAAGGGUAAAUUAUC [JMF 81] (puzzle: Sensor v3, turn-off variant 2) | – | – | – | 17.9 nM | 77.7 nM | 15.8 nM
25 | GGUGGGAGGGAUGUGGUGUACAUGAGGAUCACCCAUGUGGUGGACGGGCGCGGGUGCGGGUUUUUUGUUCGUCUUGU [High Nucleotide Full Attached] (Eterna round: R97, puzzle: Sensor, turn-off variant 1) | 131 nM | – | 159 nM | – | – | –
26 | UUUUAACAUGAGGAUCACCCAUGUGAGGAUAUCGUAAUUUAUAUUAAUAUUAAUAAAACGAGAAGGCACAUUUU [JMF 5] (puzzle: Exclusion 1) | – | – | – | 138 nM | 143 nM | 85.2 nM
27 | GUCUUAAGUUAAACCGAUUACAUGAGGAUCACCCAUGUGAACAUGACAGUCCGCAUGAGGAGUUUCUUGCUCGUCAU [Eternabot (L1) Solution 28] (Eterna round: R97, puzzle: Sensor, turn-off variant 1) | 49.6 nM | – | 46.8 nM | – | – | –
28 | UAGUUACAUGAGGAUCACCCAUGUGAGGAUAUGAGUCAGUCACGGUGACGUGGCUGACUCAGAAGGCACAAUGG [Mat - Exclusion 1 - JL Mod - D45] (Eterna round: R97, puzzle: Exclusion 1) | 77.4 nM | – | 256 nM | – | – | –
29 | AACCAGCGAGGAUAUGCUUGCGCGUGUUCUGGUUAUAAUCGACUUGAGGAUCACCCAAGUAGAAGGUGCUGGCG [EX2 #55] (Eterna round: R97, puzzle: Exclusion 2) | 360 nM | – | 147 nM | – | – | –
30 | UUAAUUCGGAUUCUUGAAAUACAUGAGGAUCACCCAUGUUCACAGGAUAUUGAUUAUGUUAGUAACAAGAAGGGUGUAACAUAU [JR_ExcNG3_Sub036] (Eterna round: R96, puzzle: Exclusion NG 3) | 87.1 nM | 31 nM | 28.7 nM | – | – | –
31 | AGCCAAGCAGGAUAUGCCCGGAAUAACAUGAGGAUCACCCAUGUGACCGAUUGAUGUUCUGCAGAAGGGCUUGGAA [Erxesoan mod] (Eterna round: R97, puzzle: Exclusion 5) | 214 nM | – | 28.8 nM | – | – | –
32 | GGUACUAACACGAUAGUGUUAGUACUAUAAGCUUGUGUUACAUGAGGAUCACCCAUGUCCUCAUAAGCUCGUCUUGA [Mat - Sensor v3 - Turn-off var 2 - D91] (puzzle: Sensor v3, turn-off variant 2) | – | – | – | 38 nM | 640 nM | 36 nM
33 | UGUUGUUGAUAGGAUAUACUUGUAGGAGUUGUAGUAGAAGGAUCUACAUGAGGAUCACCCAUGUAGGAGUGAGU [JR_E6_Sub004] (puzzle: Exclusion 6) | – | – | – | – | 15.6 nM | –
34 | AAUAUCACAGGAUAUCCGGAUUUGUACAUGAGGAUCACCCAUGUGGUGACGUAGAACUCCGGAGAAGGGUGUCCAG [Eternabot (L2) Solution 89] (Eterna round: R97, puzzle: Exclusion 5) | 29 nM | – | 161 nM | – | – | –

Reference: the supplement of paper PMC9170038
